From patent US20200239570A1 (CRESCENDO BIOLOGICS, published 2020)
Where two headings read alike, the source gives them in different places. Values belong to the molecule of their own block, whether it stands above or below them.

Columns and labels:
[1] = target: human PD-1 expressed on cells (CHO human PD-1 cells) (human) (UniProt Q15116)
[2] = target: human PD-1 expressed on cells (CHO human PD-1 cells) (human) (UniProt Q15116); remark: listed apart in the source
[3] = target: T1, recombinant human PD-1 Fc chimera (human, UniProt Q15116 25-167); assay: HTRF inhibition assay: biotinylated PD-L2-Fc binding to Europium cryptate labelled human PD-1-Fc; the target of the control antibody is not given
T1 construct: Bought (R&D 1086-PD); Labelled with europium cryptate in the PD-L2 HTRF assay; also called human PD-1 (R&D Systems cat no. 1086-PD); human PD-1-huFc; not shown: human Fc of the bought chimera

[4] = target: T1, recombinant human PD-1 Fc chimera; assay: HTRF inhibition assay: strep tagged human PD-L1 binding to recombinant human PD-1 (PD-L1 by legend paragraph 65; the sheet's title reads PD1:PDL2); the target of the control antibody is not given
[5] = target: T2, human PD-1 expressed on cells (CHO human PD-1 cells) (human, UniProt Q15116 21-288); assay: FMAT epitope competition on CHO human PD-1 cells; competitor 2 nM 2.1-Strep tagged protein
T2 construct: CHO cells in the FMAT assays; Jurkat reporter cells in the reporter assay; primary CD4+ T cells in the mixed lymphocyte reaction; also called CHO TREX human PD1 cell line; CHO PD-1
Procedure: (§1) For the epitope competition assay reagents were prepared in FMAT assay buffer. […] Plates were incubated for a minimum of 1.5 hours at room temperature then fluorescence measured in the FL2 (502 nm-537 nm) and FL5 (677-800 nm) channels on the Mirrorball plate reader (TTP) following excitation at 488 nm and 640 nm. Data was expressed as a % of the total binding control (i.e. % control) after subtraction of the background signal determined from the non-specific binding control wells.

[6] = target: T3, mouse PD1 (R&D Systems cat no. 1021-PD) (mouse, UniProt Q02242 25-167); assay: HTRF binding assay, 2 nM mouse PD-1
T3 construct: bought recombinant protein; also called mouse PD-1 protein
T3 sequence (looked up): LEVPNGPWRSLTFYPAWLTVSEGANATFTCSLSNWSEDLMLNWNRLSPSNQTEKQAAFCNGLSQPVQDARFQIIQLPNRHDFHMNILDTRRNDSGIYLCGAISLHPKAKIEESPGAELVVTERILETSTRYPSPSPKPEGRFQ

[7] = target: T2, human PD-1 expressed on cells (CHO …); assay: FMAT epitope competition on CHO human PD-1 cells; competitor 2 nM 1.1-Strep tagged protein
Procedure: as §1

[8] = target: T1, recombinant human PD-1 Fc chimera; assay: BLI (Octet), PD-1-huFc on biosensor, 1:1 fit
Procedure: Binding kinetics of clones to human PD-1-huFc were measured in real-time bio-layer interferometer based biosensor Octet (ForteBio). Recombinant human PD-1-huFc was either immobilized by standard amine coupling to amine reactive biosensors in 10 mM sodium acetate at pH 5.0 or capture by protein G biosensors (ForteBio). All the binding studies were performed in HBS-ET Octet kinetics buffer. Biosensors were always washed in Octet kinetics buffer in between different steps. A seven point, two-fold dilution series of each Humabody® VH was made with a top concentration in range 100-30 nM. The contact time for each of the association steps was varied between 180-300 seconds and the dissociation step was varied between 400-600 seconds. Kinetic association (kₐ) and dissociation (kd) rate constants were determined by processing and fitting the data to a 1:1 binding model using ForteBio Analysis software.

[9] = target: T2, human PD-1 expressed on cells (CHO …); assay: FMAT, His-tagged VH on CHO human PD-1 cells
[10] = target: T4, cynomolgus PD-1 (Acro Biosystems cat no. PD1-C5254) (cynomolgus, UniProt B0LAJ3 25-170); assay: HTRF binding assay, His-tagged VH on 2 nM recombinant PD-1
T4 construct: bought recombinant protein; also called cyno PD-1; cynomolgus PD-1 recombinant protein; not shown: Human Fc tag of the vendor's construct, and any linker to it; The Fc is implied by detection with anti human-Fc cryptate
Procedure: (§2) Purified VH were tested for their ability to bind to human PD-1 (R&D Systems cat no. 1086-PD), cynomolgus PD-1 (Acro Biosystems cat no. PD1-C5254) and mouse PD1 (R&D Systems cat no. 1021-PD) in an HTRF Binding assay format. All reagents and serially diluted VH were prepared in assay buffer containing PBS, 0.1% BSA and 0.4M Potassium Fluoride. Samples or assay buffer (non-specific binding) were incubated with 2 nM human/cynomolgus or mouse PD-1, 1 nM Anti human-Fc Cryptate PAb (Cisbio cat. no. 61HFCKLB) and 30 nM anti His-D2 (CisBio cat no 61HISDLA) in black 384-shallow well assay plates for a minimum of 3 hours at room temperature. Time-resolved fluorescent emission at 620 nm and 665 nm was measured following excitation at 337 nm on the BMG PHERAstar plate reader. The HTRF ratio were calculated ((665 nm emission/620 nm emission)*10000) and the data corrected for (non-specific binding) to give the specific binding signal.

[11] = target: T1, recombinant human PD-1 Fc chimera; assay: as above
Procedure: as §2

[12] = target: T1, recombinant human PD-1 Fc chimera; assay: SPR (Biacore T200), PD-1-huFc amine-coupled to CM5, single cycle kinetics, 1:1 fit
Procedure: Binding kinetics of certain VH single domain antibodies binding to human PD-1-huFc were measured by surface plasmon resonance (SPR) technology using Biacore T200 instrument (GE Healthcare). Recombinant human PD-1-huFc was immobilized by standard amine coupling to CM5 sensorschip (GE Healthcare) using 0.01 mg/ml solution of antigen in 10 mM sodium acetate at pH 5.5. For the reference flow cell, a blank immobilisation was carried out. Single cycle kinetics assays were used to study the interaction, a five point, three-fold dilution series of each Humabody® was made with a top concentration of 30 nM. The binding kinetics were followed by flowing the Humabody® over the chip surface in HBS EP+ buffer at a flow rate of 30 μl/min. The contact time for each of the association steps was 180 seconds and the dissociation step was varied between 1200-3600 seconds. The data was fitted to a 1:1 binding model after double reference subtraction using the Biacore T200 Evaluation software.

[13] = target: human PD-1 expressed on cells (CHO human PD-1 cells) (human) (UniProt Q15116); remark: listed apart in the source
[14] = target: T2, human PD-1 expressed on cells (CHO …); assay: cell-based or functional assay
[15] = target: T3, mouse PD1 (R&D Systems cat no. 1021-PD); assay: HTRF binding assay on mouse PD-1
Procedure: as §2

[16] = target: T1, recombinant human PD-1 Fc chimera; assay: HTRF inhibition assay: strep tagged human PD-L1 binding to recombinant human PD-1 (PD-L1 by legend paragraph 65; the sheet's title reads PD1:PDL2)
Procedure: All samples and reagents were prepared in HTRF assay buffer containing PBS, 0.1% (w/v) BSA and 0.4M Potassium Fluoride. […] Total binding controls containing periplasmic extract sample buffer and non-specific binding controls containing excess untagged competitor were set up on each plate for data normalisation. Time-resolved fluorescent emission at 620 nm and 665 nm was measured following excitation at 337 nm on the BMG PHERAstar plate reader. Data was expressed as a % of the total binding control (% control) after subtraction of the background signal determined from the non-specific binding control wells.

[17] = target: T2, human PD-1 expressed on cells (CHO …); assay: FMAT binding assay on CHO human PD-1 cells, detection by anti-His
From the text: Plates were read in the FL2 (502 nm-537 nm) and FL5 (677-800 nm) channels on the TTP Mirrorball plate reader following excitation at 488 nm and 640 nm. Data was gated on FL5 perimeter and peak intensity and the FL2 median mean fluorescence intensity of the gated data used for determination of VH binding.

T2 sequence (Q15116 21-288): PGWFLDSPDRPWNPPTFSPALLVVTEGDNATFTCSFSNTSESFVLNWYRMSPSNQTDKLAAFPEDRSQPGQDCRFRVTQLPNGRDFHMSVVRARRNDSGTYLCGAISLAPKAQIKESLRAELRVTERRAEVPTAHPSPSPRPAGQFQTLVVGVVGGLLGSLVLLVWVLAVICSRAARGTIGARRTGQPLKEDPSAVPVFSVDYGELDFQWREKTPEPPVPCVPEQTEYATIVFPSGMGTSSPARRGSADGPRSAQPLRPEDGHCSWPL
human PD-1 expressed on cells (CHO human PD-1 cells) (human), sequence (Q15116 21-288): as above
T4 sequence (B0LAJ3 entry or part of it limits assumed): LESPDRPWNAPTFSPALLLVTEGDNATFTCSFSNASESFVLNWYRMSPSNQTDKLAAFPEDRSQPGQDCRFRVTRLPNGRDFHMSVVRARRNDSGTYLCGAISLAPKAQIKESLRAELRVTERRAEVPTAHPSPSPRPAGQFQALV
T1 sequence (Q15116 25-167, change not shown): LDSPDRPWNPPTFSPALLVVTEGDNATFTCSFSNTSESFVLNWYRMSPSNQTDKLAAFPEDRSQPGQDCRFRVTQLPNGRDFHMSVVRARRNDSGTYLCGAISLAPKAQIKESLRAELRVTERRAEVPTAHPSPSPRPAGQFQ

EC50 (read off the curve), NFAT-luciferase reporter [1]: 5 nM
EC50 (read off the curve), NFAT-luciferase reporter [2]: 20 nM
Molecule: Control

IC50 (read off the curve) [3]: 0.3 nM
IC50 (read off the curve) [4]: 0.3 nM
Molecule: Control anitbody (antibody)

IC50 [5]: 9.4 nM
binding result [6]: no binding
IC50 [7]: 9.2 nM
Kd [8]: 2.6 nM
koff [8]: 0.0015 s⁻¹
kon [8]: 590000 M⁻¹ s⁻¹
EC50 [9]: 0.7 nM
EC50 [10]: 6.3 nM
EC50 [11]: 3.3 nM
B1: VH single domain antibody 2.1 (VHH)
VHH: EVQLVESGGGVVRPGGSLRLSCAASGFTFDDYAMSWVRQAPGKGLEWVSGITWNGGSTGYADSVKDRFTISRDNAKNSLYLQMNSLRAEDTALYYCVRDKYSYAWSYDGFDIWGQGTMVTVSS
notes: human VH single domain antibody; also called Humabody VH 2.1; clone 2.1

binding result [6]: no binding
Kd [12]: 6.89 nM
koff [12]: 0.0385 s⁻¹
kon [12]: 5.5e+06 M⁻¹ s⁻¹
EC50 [9]: 1.3 nM
EC50 [10]: 18 nM
EC50 [11]: 13 nM
B2: Humabody VH 2.12 (VHH)
VHH: EVQLVESGGGVVRPGGSLRLSCAASGFTFDDYAMSWVRQAPGKGLEWVSGITWNAGSTGYADSVKGRFTISRDNAKNSLYLQMNSLRAEDTALYYCVRDKYSYAWSYDDFDIWGQGTMVTVSS
notes: human VH single domain antibody

EC50 (read off the curve), NFAT-luciferase reporter [13]: 2 nM
B3: Blocking VH-4GS-1.39 (protein, part only; not given: 4GS linker, part only)
VH(A)-linker-VH, part: EVQLVESGGGLVKPGGSLRLSCAASGFTFSDESMTWMRQAPGKGLEWVSYISSGGGVKFYADSVKGRFTISRDNAKNSLYLQMNSLRAEDTAVYYCAREAPLRLGESPHDAFDISGQGTMVTVSSEVQLVESGGGLVQPGRSLRLSCAASGFTFDDYALHWVRQAPGKDLEWVSGISWNGGSYGYADSVKGRFTISRDNAKNSLYLQMNSLRAEDTALYYCVREKGPGLTGSTADYYGLDAWGQGTMVTVSS

EC50 (read off the curve), NFAT-luciferase reporter [13]: 1 nM
B4: Blocking VH-4GS-2.12 (protein, part only; not given: 4GS linker, part only)
VH(A)-linker-VH, part: EVQLVESGGGLVKPGGSLRLSCAASGFTFSDESMTWMRQAPGKGLEWVSYISSGGGVKFYADSVKGRFTISRDNAKNSLYLQMNSLRAEDTAVYYCAREAPLRLGESPHDAFDISGQGTMVTVSSEVQLVESGGGVVRPGGSLRLSCAASGFTFDDYAMSWVRQAPGKGLEWVSGITWNAGSTGYADSVKGRFTISRDNAKNSLYLQMNSLRAEDTALYYCVRDKYSYAWSYDDFDIWGQGTMVTVSS

EC50 (read off the curve), NFAT-luciferase reporter [14]: ~20 nM
B5: Blocking VH (VHH)
VHH: EVQLVESGGGLVKPGGSLRLSCAASGFTFSDESMTWMRQAPGKGLEWVSYISSGGGVKFYADSVKGRFTISRDNAKNSLYLQMNSLRAEDTAVYYCAREAPLRLGESPHDAFDISGQGTMVTVSS

IC50 [5]: 3.6 nM
binding result [15]: no binding
IC50 (read off the curve) [16]: ~2 nM
IC50 [7]: 3.5 nM
Kd [8]: 1.9 nM
kon [8]: 450000 M⁻¹ s⁻¹
EC50 [10]: 0.6 nM
EC50 [11]: 0.5 nM
EC50 (read off the curve) [17]: ~0.5 nM
B6: VH single domain antibody 1.1 (VHH)
VHH: EVQLLESGGGSVQPGRSLRLSCAASGFTFDDHAMHWVRQAPGKGLEWVSGISWNSGSMGYADSVKDRFTISRDNAKSSLYLQMNSLRAEDTALYYCVREKGPGLTGSTADYYGLDVWGQGTMVTVSS
notes: human VH single domain antibody (Humabody), purified through its C-terminal His tag; also called Humabody 1.1; clone 1.1

binding result [15]: no binding
IC50 (read off the curve) [16]: ~5 nM
EC50 [10]: 1.1 nM
EC50 [11]: 0.9 nM
B7: VH single domain antibody 1.2 (VHH)
VHH: EVQLVESGGGLVQPGRSLRLSCAASGFTFDDYAMHWVRQAPGKDLEWVSGISWNGGSMGYAASVKGRFTISRDNAKNSLYLQMNSLRAEDTALYYCVKDKGPGLIGSTADYYGLDVWGQGTTVTVSS
notes: as for B2

EC50 (read off the curve) [17]: ~0.7 nM
B8: 1.21 (VHH)
VHH: EVQLVESGGGLVQPGRSLRLSCAASGFTFDDYAMHWVRQAPGKDLEWVSGISWNGGSMGYAASVKGRFTISRDNAKNSLYLQMNSLRAEDTALYYCVREKGPGLTGSTADYYGLDVWGQGTMVTVSS
notes: also called VH single domain antibody 1.21; Humabody VH 1.21
